Data taken from the DeepSol protein solubility set.

assay: soluble on expression in E. coli; label from the status in PepcDB or PDB records

**Q.** With “MAHHHHHHMRNMNDKNNVHNNYYYLKLENVNNGWRNKELKNDITNENIYQFIGKKKKNYSSSEMSKNSYSTCNTNNNIYINYNNNNNMYNNYNNNIYKNLNNRNINYKGYKFKQNYHTNAYVNISKNRNYYYPSESKKLTNEYNKYDFDNLEKRECKIINDESYKIEETTDMENDMLYIHNDSLPSHQPTINNNTQELYHINNYNNNIYFYEPCEKDNYLDSSIKDIYFDIYSNDTSENIKNETNDIINVDQKGNKYEENNINISNNTHEYKTFVNDDKQLLLDHIKRLEYQNNIFLNNMLNMYYVCIDYIKLQDDKIKEHEQVINSQKEFISNLKKQLSSNDNTNVAYNININHINKYKHVTK” as the sequence, how does the “soluble on expression in E. coli” value read?
**A.** not soluble

**Q.** Which “soluble on expression in E. coli” value does the source give for “MGSDKIHHHHHHMSLLALFSLFGCDNAANTATICKNNPELCDDLHRDSWCRYERADLIQKRYTLKNTPSPTGKQIYQHLINLENYSKCIELAAGVQHIMHPERTNDRVRAFGISAQNLAQLRETTKDNPDLYLSYYHWIRLNDQAALSRVIKAQQAGSIKDLEILASLASYYQKSDLDKAKALYLQLLDSADPDSFNPDWLLGLASIYHQQNDLEKTYLFSKANVLMTRNTASDAKMNALINGNQQLAHFLDEQADTLVEHLKNGDYASSEIRAQLNTSS” here?
**A.** not soluble

**Q.** With “MGSDKIHHHHHHMSAAVERSPEEKRVIPVALSSASVYPLSVHDAFAVAQDLGFDGVEVMVTNNATSQSPHSLLELSHRYRQPIVSIHAPTLLLTQKVWGSAWNKIEMSCRMAREVGCGTVVVHPPFRWQNNYAENFPAGIRQLADMYQVRIAVENMYPWRVRGRETVAYLPHWDPLGQDYDDVTWDFSHAATAGANSVEAIKALGGKLRHIHLTDGSGSGRDEHLIPGRGNQGCAEALQHLAGSGFDGVVVAEISTRRAKFAGERELWLNETLKFARQHLSHPLVGAREA” as the sequence, how does the “soluble on expression in E. coli” value read?
**A.** not soluble

**Q.** Which “soluble on expression in E. coli” value does the source give for “LAKGLEDVYIDQTNICYIDGKEGKLYYRGYSVEELAELSTFEEVVYLLWWGKLPSLSELENFKKELAKSRGLPKEVIEIMEALPKNTHPMGALRTIISYLGNIDDSGDIPVTPEEVYRIGISVTAKIPTIVANWYRIKNGLEYVPPKEKLSHAANFLYMLHGEEPPKEWEKAMDVALILYAEHEINASTLAVMTVGSTLSDYYSAILAGIGALKGPIHGGAVEEAIKQFMEIGSPEKVEEWFFKALQQKRKIMGAGHRVYKTYDPRARIFKKYASKLGDKKLFEIAERLERLVEEYLSKKGISINVDYWSGLVFYGMKIPIELYTTIFAMGRIAGWTAHLAEYVSHNRIIRPRLQYVGEIGKKYLPIELRR” here?
**A.** soluble

**Q.** With “MTGQTVECIRSAGVVGAGGAGLPTHIKADASVDTVLVNGASCEPLLMSDPYLIQAHPDIVIRGLLAVMDCTGARRGIICLKGKHAAAMAAVRGAVTREGSGRLEVFELRDFYPAGDEHVLVHEVLGRTVPQGGIPLQIGAVVSNVETLYNVALAMEGAPVTHRYVTVSGEVKRHMVVKVPVGTLVSDVLTFAGGPAITEYKVVDGGPMMGRVLPHTGRPVTKTTSGLLVLPPDHTVVARKIMDPEKVRRITTSICCQCSHCTDLCPRNLLGHSLHPHRLMRVLEGQMHAGTVAREALLCSECGLCEKFACPMMVSPREINAQIKQVLRREGVRWESTGEEPVPHPFRKSRYVATGRLLRRLDLVQYDTHPGYAGEYTPHMVRIPLAQHIGAPAVCVVAPGDTVRTGDLIGEIPEKSMGARVHASISGRVESVEDGMVTIKAC” as the sequence, how does the “soluble on expression in E. coli” value read?
**A.** not soluble

**Q.** Which “soluble on expression in E. coli” value does the source give for “MAHHHHHHMQTPNSECVGPESPKAGIASSCQGCPNASICASMPKGPDPDIELIRQRLSGVKRTVMVISGKGGVGKSTLTKELAFALGQMGLNVALVDLDICGPSLPRLMGVRGEDAHQSAAGIEPVLVDETVSMISMHYLLGDKNEAVLFRGPRKNGVIKMFLKDVIWGDVDIMLIDTPPGTSDEHITVASILQQCGGVTGAILITTPQLVAEADVKREVKFSHKAKLHLLGIVENMSGFVCPNCKESSVIFPRANSQGAGKRLSDEFGVPFWGEVPLDPVLMKACEEGVSLTDIVDGKSPTIEILQSVAAKLVASLEIE” here?
**A.** soluble

**Q.** Which “soluble on expression in E. coli” value does the source give for “MASIGRAIVRVPKNVKKGQIFKVQMVIIHPMETGLRKDPKTGKKIPAHYITHVDLYFNGKLVTKINTSPGISKNPYFAIKMKAEEAGTLKIVYEDNKGGKWEKEVKINVA” here?
**A.** not soluble

**Q.** Which “soluble on expression in E. coli” value does the source give for “MTADSCNPCLTLENTIDVQEVPMTKSVVLADPRGFCAGVDRAILTVQTILKAAEASGKRTREDGLPPVYVRRQIVHNKHVVEDLAGQGAVFVQELAEIPDAAAQAGIPVVFSAHGVSPVVKAEAERRGMHVVDATCPLVGKVHREVLRFVREGYEIVYIGHKGHDEAVGVVGESPEHVHLIEHESDVDSLDFAPDTKLVLLSQTTLSVDETADTIAALKAKFPWIQEPPSSDICYATSNRQAAVKLVAQQSDCVVIVGSANSSNSVRLMEVAQEGLGERGKAYRVDDASELDPAWFEGLESVGISSGASVPDELVSGVIDALQNLGFTGMKSVETIKENMHFVLPAELRRKKLEHHHHHH” here?
**A.** soluble

**Q.** For “MSLYENNVKDTKDFYNDIGHISWSVAPSQHYHVGIFELEKDSMEDAQNRTVEYMARKVAASDLDVLLDIGCGSGLTAVQISKKENCKIVGINISEKQLAIGKKLISKEKINSRVKLMNMDAHQLNFKSGMFDGAYALESIMHMNREKVLSEVHRVLKNGAPFSLCDWYVKKSLTPVEKRFLETITLGKYITKEQYFSLYQTQNFMDIEIEEWSNKILPTYKYWTTITDEMKEKLPDHLLYVIEENSKVLSDIAIEKLGYLQVNGIKREGHHHHHH”, which “soluble on expression in E. coli” value is on record?
**A.** soluble

**Q.** With “MMINFEAIIGIEVHVVLNTATKMFSPAPNQAQNATPNQFINAIDLGLPGTMPQVNEQAVQKALILADALNMQRVQPVLVFDRKHYFYQDLPKGFQITQQNFPIAQNGYVEIVENNKAQRIIIERFHLEEDTAKQHFVDGQILLDFNRCGAPLIEVVTAPVIKSAKQSKAYLQKLRQILIVNNISNAKLEDGSMRSDCNVSVRLKGQTAFGTKVEIKNINSLNNVEKAIDLEIARQVKALIKGEPVQQVTLTYDDKTNTNVFMRKKDNSVDYRYFIEPNIMSSNIDELLQKPNKAFNLTEFFTKLKEAGVNEQLNQLVVDDLTLFNAYTKINSVINSPQDTIRWLCIELMGQLNKLQKPLKDKTIDHLIILIQMVQKGTVNQKQAKQLIELMLDNGQDPQSLAKLHNLEQITDEKQLTQIIQQIFKENEGEILKNLDRVERIQKLIIGQVMQRTHNRANPQQVFIIVEKLLHDFSERAS” as the sequence, how does the “soluble on expression in E. coli” value read?
**A.** not soluble

**Q.** Which “soluble on expression in E. coli” value does the source give for “MSLKAAVLKNYGTLPEYQEFPEPKPKNYDELLVTPIASSVKRLDVIRAAGKHYTKFSELPAVMGMDGVAKLDNNSRVYAMGITGMMAEKALIDQRTMTVLPDGLDAGLAAALPNALIGSDLALLERGKIKTGDVVFINGATGLTGSLAVQMAKLRGAKRVIVTGRDPIKLQHLKDLGAYLTITTNQPDNSFVKELINAYNQSPFNLILDYLWGHPAELIIEALRRIRFLNSLKYISIGSLAGEGISVPSQLLRSKDLELIGSGIGSLDPNAVQVYMQKHLTEIFDYANQGKLSMELKSFPLDKISSAWISAPAVITIEGHHHHHH” here?
**A.** not soluble

**Q.** Which “soluble on expression in E. coli” value does the source give for “MAHHHHHHMLRARTLLLFMRPEAAAAELRRLLPLLSFAGRRTGAATHSVASLIVSTAYSATAARSVTNHSRDCPVLSKKLPLPLIGKESSFAARPCLNCVRERVHYVSSLSFCDYFEKKCAEAQHYRNGASSNGVVGTAALPKLLLEAIERSYGSVAAFKDSVMLHSTGAMSPGRLWIVYTPPISGSEHGAVRLLNLPACKVPLVHGLWPLAVINMTEKRLCEQIACRSGKGGDAVDADDAPAWRHAARTRKTLGALATTEEGNDRAGNVAQVKLSSIQSAIAEEALCAMNWKFVETQLTSALAYYSSKERTQTQREHRKEKEHVAAVRAMSQLKNSGAVIHATDSVTITSSNSFVASSASEPNLSAAAAVTSSSAKAENSALGEANTQTAAVAAPSAEATAANTASNSAQPADNTATGAAAAEPRAVQQADGTWEYHYNNGSVTKALPDGTKVFQTESLTTTVFVNGDTLFEYPNNTSILDRADGVRVITYADGTKKEERLK” here?
**A.** soluble

**Q.** Which “soluble on expression in E. coli” value does the source give for “MRGKAMNIQRFIEKRKARGLSQSELAKGICTQVTVSRFEKNGQVPTLKILIQLCNRLELPLGELFPRVGIKQPEILEKMEEAEFFLITSEHDQLQTILKNIPFDEIKDSQLLLEYYYLQGFVMIFQNASLMDCLFTFEKLLFEEQKYTSDIYRLLAFTGIGMAYAKEGEIEKAEFYFNKVFKEIYLYTIQSMEDTWRVLNVVFHCGVFYAEKGDLETSDALLEYAISICSDNHVTYYLARAAFQLAKNALAEEKPQEQILELLQDARAYAKINKNRILLEAIQTLKETILSKGN” here?
**A.** not soluble

**Q.** Which “soluble on expression in E. coli” value does the source give for “MGSDKIHHHHHHMNLKQLEYFMHVAELGSFSKAAMVLDVAQPALSRQVRGLETELRQQLFLRNGRGVALTEAGRRLFDHSVAIMQMVAHAREDLGASRDAPVGRVTIGLPPSIARQLTLPLIDHFKRTLPSARLAIVEGLSSHIIEWVTTGRADVGLVYNPDAQPGIEITPLLQEPLGLVSYAPPSKRRGAAAPLPFKELSKYPLIVPERVHAMRRLLENEAALAGVKLDIAWEVSSVPSIIELVCAGYGHAVLTRSGVAASPRAAELVMRPLIEPAPASALCLVVSATRRPTPLAQHSMRMLTDLVRTLPT” here?
**A.** not soluble

**Q.** With “MGSDKIHHHHHHMDGLLNPRESSKFIAENSRDVFIDSGGVRRVAELLLAKAAGPELRVEGWKALHELNPRAADEAAVNWVFVTDTLNFSFWSEQDEHKCVVRYRGKTYSGYWSLCAAVNRALDEGIPITSASYYATVTLDQVRNILRSDTDVSMPLVEERHRILNETGKILLEKFGGSFLNCVRESENSAQKLMHLVVESFPSYRDVTLFEGKRVSFYKRAQILVADTWSVLEGKGDGCFKDISSITMFADYRLPQVLAHLGALKYSDDLLKKLLKGEMLSYGDRQEVEIRGCSLWCVELIRDCLLELIEQKGEKPNGEINSILLDYYLWDYAHDHREDMKGIPFHRIRCIYY” as the sequence, how does the “soluble on expression in E. coli” value read?
**A.** not soluble

**Q.** Which “soluble on expression in E. coli” value does the source give for “MGSDKIHHHHHHMQNVNSAFEYCDQLVKDFERVIEHPIVSKSSVYYTGIDLGTAYIVLAVLDENYQPVAGAYRFANVVKDGMVVDYIGAIRIVKELKQELEERLDTELVYAAAALPPGTMALDSGVIKHVVQGAGFEITNLLDEPTAANAVLKIKDGAIVDIGGGTTGITILKDGEVIYVADEPTGGTHFSLVIAGAYKMSFDEAENYKQNPKNHRELTPVVGPVVEKVSSILNRHLRDYQVETIYLVGGTCCLEGIETIIARQTGIPTYKPQNPMFVTPLGIALNCTQEIL” here?
**A.** not soluble

**Q.** For “MRQGFPYARPGQVIGLFGGSFDPPHAGHVHVTREALKMFGLDRVWWLVTPGNPLKAHGPAPLDRRMEAARAMMRHPRVDVTDIEAHLGTRVTADTIAALRRIYPRVRFVWLMGADNLAQLHRWKDWRQIIETVPVGVLARPGDRISARMSPAARAYAPYRIDGQARHLLGRAEAPAWCFVNVPMVDVSSTRIRAAGGWSAAQQGRGQTGTQDQ”, which “soluble on expression in E. coli” value is on record?
**A.** not soluble

**Q.** Which “soluble on expression in E. coli” value does the source give for “MGSDKIHHHHHHMTKKRIFVTGASGCIGHYISETLIQETDYELYLLVRNPSKLQVDTQIRPGITVLQGDMQNISQFADLLSTIDIAVLTATAWGGEQTFDINVSKTIELLNLLDPDRCQQVIYFSTASVLDSHNQPLKEAGEIGTDYIRSKYECLHKISELGIASKITTVFPTLVLGGDSKKPYSHLTSGIPEVTKYVNLIRFLQADGSFHFIHGKDIASVVKYLIVNPPQENTSRRLVLGQKRLTANQAIEEVCTYLGKKISFRIPLSLSLANLIIAVFRIQMADWDRFCMNYRHFTYDTVINPDSFGLPNYCATMSDVLKISGVDSSHQ” here?
**A.** not soluble
